{
  "source": "paper PMC3549482",
  "key": {"[1]": {"target": "CD81 on 293-T cells (human (endogenous in HEK 293-T)) (UniProt P60033)", "sequence (P60033 whole entry)": "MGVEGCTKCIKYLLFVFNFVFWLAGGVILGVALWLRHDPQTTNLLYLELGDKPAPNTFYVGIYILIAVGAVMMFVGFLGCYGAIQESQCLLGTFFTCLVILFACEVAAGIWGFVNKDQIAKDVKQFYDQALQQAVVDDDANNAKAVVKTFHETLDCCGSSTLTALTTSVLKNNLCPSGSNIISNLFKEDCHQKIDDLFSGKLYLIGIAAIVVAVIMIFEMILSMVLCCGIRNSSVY", "test": "flow cytometry on cells"}, "[2]": {"target": "CD81 on 293-T cells (human (endogenous in HEK 293-T)) (UniProt P60033)", "test": "flow cytometry on cells", "remark": "listed apart in the source"}},
  "note": "Read-outs that look alike come from different tables or passages of the source.",
  "data": [
    {"substance": "HCV E2 (strain not told for the experiment on 293-T cells) (natural protein)", "values": [
      {"measurement": "Mean FI", "setting": "[1]", "value": 62},
      {"measurement": "Mean FI", "setting": "[2]", "value": 79}
    ]}
  ]
}
